According to PMC9347011, “Transcriptional and post-transcriptional regulation of ethylene biosynthesis by exogenous acetylsalicylic acid in kiwifruit”:

T1: AdWRKY29 (kiwifruit, UniProt A0A2R6PHX2 1-296)
T1 sequence: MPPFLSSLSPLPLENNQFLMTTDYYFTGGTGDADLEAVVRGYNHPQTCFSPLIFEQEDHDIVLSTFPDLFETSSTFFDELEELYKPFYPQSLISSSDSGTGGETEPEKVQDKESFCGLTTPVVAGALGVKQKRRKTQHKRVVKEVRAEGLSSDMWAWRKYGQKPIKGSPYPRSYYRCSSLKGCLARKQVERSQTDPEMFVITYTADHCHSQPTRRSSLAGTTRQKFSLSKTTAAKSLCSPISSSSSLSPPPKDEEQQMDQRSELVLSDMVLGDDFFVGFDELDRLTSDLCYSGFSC


How the values were obtained:
Settings in all cases: protein: recombinant; tags: GST (pGEX-4T-1); label: 3'-biotin
[1] = biological target: AdERF105L (kiwifruit, UniProt A0A2R6RWH8 1-269); test: EMSA; reduced by 20- and 500-fold unlabeled probe; LightShift Chemiluminescent EMSA kit (Thermo); 3'-biotin dsDNA probes, 20- and 500-fold unlabeled competitor; buffer, salt, pH and temperature not stated
Chain of AdERF105L (A0A2R6RWH8 entry or part of it): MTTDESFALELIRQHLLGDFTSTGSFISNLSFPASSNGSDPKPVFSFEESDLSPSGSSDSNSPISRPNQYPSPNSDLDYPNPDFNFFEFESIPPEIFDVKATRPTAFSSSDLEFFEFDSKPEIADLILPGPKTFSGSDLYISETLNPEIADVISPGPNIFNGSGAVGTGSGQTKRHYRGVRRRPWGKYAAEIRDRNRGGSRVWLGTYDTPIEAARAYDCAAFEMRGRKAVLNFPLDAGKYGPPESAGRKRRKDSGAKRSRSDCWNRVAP

[2] = biological target: T1, AdWRKY29; test: as above
[3] = biological target: T1, AdWRKY29; test: EMSA; LightShift Chemiluminescent EMSA kit (Thermo); 3'-biotin dsDNA probes, 20- and 500-fold unlabeled competitor; buffer, salt, pH and temperature not stated

| Binder | binding result [1] | other results |
| --- | --- | --- |
| AdACS1 promoter DRE probe (dsDNA) DNA 1: CTGCGATTTGCCGTCGGTACGACTCTCATC DNA 2: GATGAGAGTCGTACCGACGGCAAATCGCAG | binds |  |
| AdACS2 promoter DRE probe (dsDNA) DNA 1: CTAAGATTTGCTGTCGGTATGGCTCTCAT DNA 2: ATGAGAGCCATACCGACAGCAAATCTTAG | binds |  |
| AdACO5 promoter W-box probe (dsDNA) DNA 1: AACAAAGTCCAGTTGACCACTTTAATTTCC DNA 2: GGAAATTAAAGTGGTCAACTGGACTTTGTT |  | binding result [2]: binds |
| AdACO5 promoter W-box mutant probe (dsDNA) DNA 1: AACAAAGTCCAGAAAAAAACTTTAATTTCC DNA 2: GGAAATTAAAGTTTTTTTCTGGACTTTGTT |  | binding result [3]: no binding |
